Laboratory results reported in patent US20140274782A1, “AFFINITY REAGENTS AND METHODS FOR DETECTION, PURIFICATION, AND PROTEOMIC ANALYSIS OF METHYLATED PROTEINS” (The Board of Trustees of the Leland Stanford Junior …, priority 2013, published 2014).

How the values were obtained:
[1] = system: 3×MBT domain of L3MBTL1; assay: Triple SILAC pull-down, 3xMBT/3xMBTD355N ratio (cytoplasmic, nuclear and chromatin fractions of 293T cells); type: binding, human; settings: for 3xMBT/D355N UNC Heavy: experiment with UNC0638 in heavy SILAC media; for 3xMBT/D355N UNC Light: experiment with UNC0638 in light SILAC media; for Protein Ratios 3xMBT/D355N: pull-down by 3xMBT vs 3xMBTD355N;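 for all read-outs here: proteins quantified with MaxQuant, requiring at least two unique peptides and quantification in both label directions, normalized to the mean of proteins from a digested loading control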
[2] = molecular target: T1, G9a and GLP (Homo sapiens, UniProt Q96KQ7+Q9H9B1); assay: Triple SILAC pull-down after UNC0638 treatment of 293T cells, DMSO/UNC0638 ratio of protein captured by 3×MBT; type: cell-based; settings: for Relative to UNC0638 UNC Heavy: UNC0638 in heavy SILAC media; for Relative to UNC0638 UNC Light: UNC0638 in light SILAC media; for Relative to UNC0638 Average: average of UNC Light and UNC Heavy experiments; for Protein Ratios DMSO/UNC0638: SILAC ratio of protein captured by 3xMBT, 293T cells treated 24 hours with UNC0638 at 2.5 μM or DMSO; for Candidate G9a/GLP target: reduced association with 3xMBT after UNC0638 treatment;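 for all read-outs here: mass spectrometry (Q-Exactive) SILAC quantitation, DMSO/UNC0638 ratio computed after subtracting 3×MBTD355N mutant pull-down background, only proteins with at least twofold 3×MBT over mutant signal considered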
T1 construct: endogenous in cells; host or cells: HEK 293T
T1 sequence (Q96KQ7 2-1210 limits assumed): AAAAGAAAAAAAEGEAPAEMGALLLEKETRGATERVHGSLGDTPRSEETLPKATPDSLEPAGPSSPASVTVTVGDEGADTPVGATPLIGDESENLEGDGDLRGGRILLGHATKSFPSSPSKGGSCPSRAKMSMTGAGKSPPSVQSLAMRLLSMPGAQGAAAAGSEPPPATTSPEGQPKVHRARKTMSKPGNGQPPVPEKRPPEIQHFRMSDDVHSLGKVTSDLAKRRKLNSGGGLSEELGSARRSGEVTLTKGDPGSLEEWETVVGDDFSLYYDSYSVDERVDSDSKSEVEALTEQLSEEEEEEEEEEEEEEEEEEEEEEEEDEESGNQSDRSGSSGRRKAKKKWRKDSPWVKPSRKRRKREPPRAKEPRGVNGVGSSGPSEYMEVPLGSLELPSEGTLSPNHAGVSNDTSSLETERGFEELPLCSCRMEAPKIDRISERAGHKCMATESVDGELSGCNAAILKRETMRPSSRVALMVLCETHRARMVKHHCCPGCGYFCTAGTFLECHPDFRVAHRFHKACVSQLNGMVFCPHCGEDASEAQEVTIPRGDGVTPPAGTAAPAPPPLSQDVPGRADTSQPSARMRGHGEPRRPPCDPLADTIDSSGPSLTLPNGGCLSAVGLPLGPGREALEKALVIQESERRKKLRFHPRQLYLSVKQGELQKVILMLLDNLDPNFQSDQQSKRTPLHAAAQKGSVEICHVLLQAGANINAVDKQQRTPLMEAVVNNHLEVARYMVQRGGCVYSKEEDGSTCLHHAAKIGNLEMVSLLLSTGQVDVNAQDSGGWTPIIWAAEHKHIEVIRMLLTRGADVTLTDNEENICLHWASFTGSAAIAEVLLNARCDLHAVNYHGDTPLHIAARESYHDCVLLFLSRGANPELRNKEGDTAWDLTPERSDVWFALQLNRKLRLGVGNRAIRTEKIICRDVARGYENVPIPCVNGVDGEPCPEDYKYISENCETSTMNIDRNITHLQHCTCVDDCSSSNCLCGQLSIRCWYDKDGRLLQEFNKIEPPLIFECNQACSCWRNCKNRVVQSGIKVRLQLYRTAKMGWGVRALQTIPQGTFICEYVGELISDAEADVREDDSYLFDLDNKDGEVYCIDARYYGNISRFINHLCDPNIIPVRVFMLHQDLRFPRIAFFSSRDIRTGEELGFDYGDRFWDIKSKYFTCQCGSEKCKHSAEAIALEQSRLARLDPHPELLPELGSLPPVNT
T1 sequence (Q9H9B1 2-1298 limits assumed): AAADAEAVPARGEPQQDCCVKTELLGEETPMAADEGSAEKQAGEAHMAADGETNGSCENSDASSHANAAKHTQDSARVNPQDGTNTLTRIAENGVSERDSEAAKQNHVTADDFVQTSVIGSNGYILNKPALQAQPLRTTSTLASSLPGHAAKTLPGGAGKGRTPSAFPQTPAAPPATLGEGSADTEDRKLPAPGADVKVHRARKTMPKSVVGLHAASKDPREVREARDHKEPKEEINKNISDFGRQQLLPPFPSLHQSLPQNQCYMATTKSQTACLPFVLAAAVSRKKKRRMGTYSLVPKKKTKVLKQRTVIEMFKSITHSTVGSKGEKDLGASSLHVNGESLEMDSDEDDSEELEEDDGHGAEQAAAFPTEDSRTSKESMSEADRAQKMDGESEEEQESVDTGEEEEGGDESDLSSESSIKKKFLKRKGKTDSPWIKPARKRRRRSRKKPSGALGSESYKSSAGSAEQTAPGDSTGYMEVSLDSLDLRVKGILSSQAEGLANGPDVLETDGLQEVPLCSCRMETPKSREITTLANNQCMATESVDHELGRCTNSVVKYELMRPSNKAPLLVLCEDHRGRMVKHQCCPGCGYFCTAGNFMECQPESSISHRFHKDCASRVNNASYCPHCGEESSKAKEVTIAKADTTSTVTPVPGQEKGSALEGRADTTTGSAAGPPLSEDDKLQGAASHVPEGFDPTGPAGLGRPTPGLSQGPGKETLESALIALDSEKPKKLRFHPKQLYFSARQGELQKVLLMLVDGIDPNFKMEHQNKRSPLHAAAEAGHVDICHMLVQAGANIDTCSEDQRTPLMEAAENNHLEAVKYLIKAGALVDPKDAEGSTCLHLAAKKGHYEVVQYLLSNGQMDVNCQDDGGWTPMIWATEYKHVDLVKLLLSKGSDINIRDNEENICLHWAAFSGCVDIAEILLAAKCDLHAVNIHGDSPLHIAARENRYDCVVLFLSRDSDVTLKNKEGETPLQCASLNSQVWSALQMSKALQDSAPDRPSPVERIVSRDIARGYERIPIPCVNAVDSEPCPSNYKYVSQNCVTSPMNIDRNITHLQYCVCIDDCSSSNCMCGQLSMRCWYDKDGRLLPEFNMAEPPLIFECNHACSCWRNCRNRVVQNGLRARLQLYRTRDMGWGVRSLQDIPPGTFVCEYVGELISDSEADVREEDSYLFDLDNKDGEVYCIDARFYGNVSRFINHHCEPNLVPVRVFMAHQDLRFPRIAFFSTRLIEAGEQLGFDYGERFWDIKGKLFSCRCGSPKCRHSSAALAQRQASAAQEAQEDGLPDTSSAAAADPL

[3] = SILAC ratio, pull-down 3xMBT vs 3xMBTD355N
[4] = SILAC ratio DMSO/UNC0638 of protein pulled down with 3xMBT
[5] = SILAC ratio 3xMBT vs 3xMBTD355N pull-down, 293T cells, all values in log base 2
[6] = SILAC ratio DMSO relative to UNC0638, pull-down with 3xMBT, all values in log base 2

Substance | 3xMBT/D355N UNC Heavy [1, 3] | 3xMBT/D355N UNC Light [1, 3] | Relative to UNC0638 UNC Heavy [2, 4] | Relative to UNC0638 UNC Light [2, 4] | Relative to UNC0638 Average [2] | Protein Ratios 3xMBT/D355N ([1]; SILAC ratio, 293T cells) | Protein Ratios DMSO/UNC0638 [2] | Candidate G9a/GLP target [2] | 3xMBT/D355N UNC Heavy [1, 5] | 3xMBT/D355N UNC Light [1, 5] | Relative to UNC0638 UNC Heavy [2, 6] | Relative to UNC0638 UNC Light [2, 6] | Relative to UNC0638 Average ([2]; all values in log base 2)
TOP2B | 1.61 log base 2 | 2.04 log base 2 | 0.21 log base 2 | 0.21 log base 2 | 0.21 log base 2 |  |  |  |  |  |  |  | 
ZFR | 2.89 log base 2 | 3.14 log base 2 | 0.09 log base 2 | 0.13 log base 2 | 0.11 log base 2 |  |  |  |  |  |  |  | 
DIDO1 | 1.35 log base 2 | 3.36 log base 2 | 0.00 log base 2 | 0.37 log base 2 | 0.18 log base 2 |  |  |  |  |  |  |  | 
EIF4G1 | 3.18 log base 2 | 3.31 log base 2 | 0.07 log base 2 | 0.25 log base 2 | 0.16 log base 2 |  |  |  |  |  |  |  | 
DDX39A | 2.00 log base 2 | 1.53 log base 2 | 0.36 log base 2 | 0.01 log base 2 | 0.18 log base 2 |  |  |  |  |  |  |  | 
ATP-dependent DNA helicase Q1 |  |  |  |  |  | 18.8 | 1.4 |  |  |  |  |  | 
TRIP12 | 0.66 log base 2 | 1.34 log base 2 | 0.46 log base 2 | −0.24 log base 2 | 0.11 log base 2 |  |  |  |  |  |  |  | 
HDGF | 1.65 log base 2 | 2.78 log base 2 | 0.23 log base 2 | 0.22 log base 2 | 0.23 log base 2 |  |  |  |  |  |  |  | 
ELAVL1 | 1.93 log base 2 | 2.42 log base 2 | 0.21 log base 2 | 0.36 log base 2 | 0.29 log base 2 |  |  |  |  |  |  |  | 
MK167 | 2.59 log base 2 | 2.26 log base 2 | 0.61 log base 2 | −0.25 log base 2 | 0.18 log base 2 |  |  |  |  |  |  |  | 
FOCAD | 1.83 log base 2 | 2.73 log base 2 | 0.20 log base 2 | 0.20 log base 2 | 0.20 log base 2 |  |  |  |  |  |  |  | 
GSK3B | 1.95 log base 2 | 2.25 log base 2 | 0.41 log base 2 | 0.03 log base 2 | 0.22 log base 2 |  |  |  |  |  |  |  | 
NSUN2 | 0.25 log base 2 | 2.00 log base 2 | 4.51 log base 2 | 0.18 log base 2 | 2.35 log base 2 |  |  | √✓ |  |  |  |  | 
RFC4 | 1.95 log base 2 | 1.80 log base 2 | 0.32 log base 2 | 0.26 log base 2 | 0.29 log base 2 |  |  |  |  |  |  |  | 
DNA-binding protein A |  |  |  |  |  | 11.1 | 1.4 |  |  |  |  |  | 
CLTC | 2.19 log base 2 | 2.98 log base 2 | 0.24 log base 2 | 0.65 log base 2 | 0.44 log base 2 |  |  | ✓ |  |  |  |  | 
RAD50 |  |  |  |  |  |  |  |  | 2.20 log base 2 | 2.08 log base 2 | 0.15 log base 2 | −0.14 log base 2 | 0.01 log base 2
SEC24C |  |  |  |  |  |  |  |  | 2.58 log base 2 | 2.17 log base 2 | 0.21 log base 2 | −0.05 log base 2 | 0.08 log base 2
